# B1: (A26Fab-645Fv)2-Fc (bispecific antibody)
# heavy: not shown
# light: DIQMTQSPSSLSASVGDRVTITCRATQSIYNALAWYQQKPGKAPKLLIYNANTLHTGVPSRFSASGSGTDSTLTISSLQPEDFATYYCQQYYDYPLTFGGGTKVEIKRTVAAPSVFIFPPSDEQLKSGTASVVCLLNNFYPREAKVQWKVDNALQSGNSQESVTEQDSKDSTYSLSSTLTLSKADYEKHKVYACEVTHQGLSSPVTKSFNRGECSGGGGSGGGGSDIVMTQSPSSVSASVGDRVTITCQSSPSVWSNFLSWYQQKPGKAPKLLIYEASKLTSGVPSRFKGSGSGTDFTLTISSLQPEDFATYYCGGGYSSISDTTFGGGTKVEIKRMHEQKLISEEDL
# notes: Tested as HEK293 supernatant; also called (FabFv)2Fc; (A26-645Fv)2-Fc
# Columns and labels:
# human serum albumin [1] = target: T1, human serum albumin (human, UniProt P02768 25-609); assay: SPR (BIAcore), HSA as analyte
# T1 construct: Bought reagent; also called HSA
# human serum albumin [2] = target: T1, human serum albumin; assay: SPR, Biacore 3000; construct captured by anti-Fc F(ab')2, HSA as analyte, 1:1 model
# Procedure: (§1) The (A26Fab-645Fv)₂-Fc samples were captured to the sensor chip surface using either a human Fe-specific goat F(ab′)₂ (Jackson ImmunoResearch, 109-006-098) or an in-house generated anti-human CH1 monoclonal antibody. Covalent immobilisation of the capture antibody was achieved by standard amine coupling chemistry.
# (§2) Kinetic binding analysis by SPR was conducted to assess the interactions of human serum albumin (HSA) to the (A26Fab-645Fv)₂-Fc fusion, when captured using either anti-Fc or anti CH1 antibody.
# human serum albumin [3] = target: T1, human serum albumin; assay: SPR, Biacore 3000; construct captured by anti-CH1 antibody, HSA as analyte, 1:1 model
# Procedure: as §1, §2
binder,measurement,setting,value
B1,Kd,human serum albumin [1],0.97 nM
same,Stoichiometry,human serum albumin [1],0.55
same,koff,human serum albumin [1],6e-05 s⁻¹
same,kon,human serum albumin [1],62100 M⁻¹ s⁻¹
same,Kd,human serum albumin [2],1.88 nM
same,koff,human serum albumin [2],7.14e-05 s⁻¹
same,kon,human serum albumin [2],38000 M⁻¹ s⁻¹
same,Kd,human serum albumin [3],0.97 nM
same,koff,human serum albumin [3],6e-05 s⁻¹
same,kon,human serum albumin [3],62000 M⁻¹ s⁻¹
